From article doi:10.1101/2021.03.09.434543 come the findings set out here.

The target in data set [1] is OsFD7, FLIM-FRET fusion (rice (Oryza sativa)). Description: FRET or BRET. (BRET reads energy transfer from a luciferase to a nearby fluorophore.)
A further data set addresses OsGF14b-GST (Oryza sativa (rice), UniProt Q7XTE8 1-262). Put plainly: EMSA. (In EMSA bound probe runs differently from free probe, usually more slowly.)
The next data set addresses OsFTL1-GST (Oryza sativa (rice), UniProt B7ELI3 1-276). Description: EMSA.
A further data set addresses T1, OsFD7 (OsbZIP62)-GST (Oryza sativa (rice), UniProt B7F384 1-274).
T1 sequence: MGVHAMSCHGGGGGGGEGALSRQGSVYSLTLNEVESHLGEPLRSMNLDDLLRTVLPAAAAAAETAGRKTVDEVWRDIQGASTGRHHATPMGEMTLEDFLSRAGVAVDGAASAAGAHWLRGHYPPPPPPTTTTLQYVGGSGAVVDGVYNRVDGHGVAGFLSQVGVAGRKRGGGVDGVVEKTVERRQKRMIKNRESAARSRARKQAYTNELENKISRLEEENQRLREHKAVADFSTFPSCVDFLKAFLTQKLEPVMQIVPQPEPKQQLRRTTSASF
Put plainly: EMSA.

In data set [2] the target is OsFD7 (OsbZIP62)-GST;OsFTL1-GST (Oryza sativa (rice);Oryza sativa (rice), UniProt B7F384;B7ELI3 1-274;1-276, |). Description: EMSA.
Data set [3] concerns the target OsFD7 (OsbZIP62)-GST;OsFTL1-GST;OsGF14b-GST (Oryza sativa (rice);Oryza sativa …, UniProt B7F384;B7ELI3;Q7XTE8 1-274;1-276;1-262, ||). Description: EMSA.

Sequence of OsGF14b-GST (Q7XTE8 whole entry): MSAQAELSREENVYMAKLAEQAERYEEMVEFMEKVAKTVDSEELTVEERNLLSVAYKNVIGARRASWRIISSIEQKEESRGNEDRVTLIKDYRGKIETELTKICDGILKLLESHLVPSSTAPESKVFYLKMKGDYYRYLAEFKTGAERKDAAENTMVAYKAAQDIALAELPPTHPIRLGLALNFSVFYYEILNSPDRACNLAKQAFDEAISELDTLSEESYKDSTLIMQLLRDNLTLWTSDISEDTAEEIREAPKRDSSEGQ

In turn, “Hd3a, FLIM-FRET fusion (from UniProt Q93WI9 1-179) (natural protein)” showed an FRET efficiency in data set [1] of 15.1%.

With “OsFTL1, FLIM-FRET fusion (natural protein)”, the FRET efficiency in data set [1] is 23.3%.

B1: GB oligo (dsDNA)
DNA 1: GTCACATACACGTGTCAGCTCAG
DNA 2: CTGAGCTGACACGTGTATGTGAC
Turning to B1, the binding result with OsGF14b-GST is listed as “no binding”; in the data set with OsFTL1-GST, “no binding”; with OsFD7 (OsbZIP62)-GST, “binds”; in data set [2], “binds”; in data set [3], “binds”.
